Source: article PMC3858360

Molecular target: human Myo5a globular domain, Myo5a (1467–1855) (human) (UniProt Q9Y4I1)
Test: SPR; Biacore 3000, 25°C; Myo5a GD covalently immobilised on a CM5 chip (50–100 RU); steady-state binding with a multi-injection protocol, HMM 0–413 nM; 20 mM MOPS-KOH pH 7.0, 0.1 M NaCl, 2 mM MgCl2, 0.5 mM EGTA, 10 µM Calmodulin, 1 mM TCEP

Chain of UniProt Q9Y4I1 (Q9Y4I1 1467-1855): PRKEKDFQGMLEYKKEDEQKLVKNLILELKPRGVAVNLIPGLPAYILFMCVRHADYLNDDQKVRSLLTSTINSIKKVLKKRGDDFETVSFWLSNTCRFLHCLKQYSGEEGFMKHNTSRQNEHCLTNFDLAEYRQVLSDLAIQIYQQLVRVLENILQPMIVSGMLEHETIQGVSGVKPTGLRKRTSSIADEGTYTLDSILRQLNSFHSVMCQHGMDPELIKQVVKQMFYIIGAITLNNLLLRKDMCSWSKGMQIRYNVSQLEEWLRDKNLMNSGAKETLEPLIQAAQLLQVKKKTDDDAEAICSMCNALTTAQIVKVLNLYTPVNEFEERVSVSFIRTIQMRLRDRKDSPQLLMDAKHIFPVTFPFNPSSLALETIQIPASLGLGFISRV

Kd: 30 nM
Substance: murine Myo5a HMM complex: Myo5a (1–1105) C-terminally fused to GCN4-Flag, coexpressed with essential light chains and calmodulins (from UniProt Q99104 1-1105; P0DP26 1-149)
